In patent US20230151373A1, “CHIMERIC POLYPEPTIDE FOR REGULATING IMMUNE CELLS” (STICHTING HET NEDERLANDS KANKER INSTITUUT-ANTONI VAN …, priority 2019, published 2023):

Biological target: CD3 ζ chain (phosphorylated ITAMs) of the TCR complex (human) (UniProt P20963)
Test: cell-based or functional assay

Sequence of CD3 ζ chain (phosphorylated ITAMs) of the TCR complex (human) (P20963 22-164, one chain of several): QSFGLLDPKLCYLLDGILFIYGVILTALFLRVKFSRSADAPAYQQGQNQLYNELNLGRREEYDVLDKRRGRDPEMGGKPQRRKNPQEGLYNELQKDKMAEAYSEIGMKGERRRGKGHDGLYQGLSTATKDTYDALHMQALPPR

Zap70 2×SH2 domains-PD1 tail fusion protein (from UniProt P43403 1-264; Q15116 192-288)
reduction in percentage responding cells (IFNγ), CDK4 TCR T cells co-cultured with 10 nM peptide loaded T2 cells, relative to vector control: 104 fold | reduction in percentage responding cells (IL-2), CDK4 TCR T cells co-cultured with 10 nM peptide loaded T2 cells, relative to vector control: 110 fold | reduction in percentage responding cells (TNFα), CDK4 TCR T cells co-cultured with 10 nM peptide loaded T2 cells, relative to vector control: 81 fold | reduction in percentage responding cells (cell surface LAMP1), CDK4 TCR T cells co-cultured with 10 nM peptide loaded T2 cells, relative to vector control: 40 fold
